From patent US20100330094A1 (NOVIMMUNE S A, published 2010)
Changes are numbered by the printed parent chain. One block for each binder: values may come before it.

Columns and labels:
[1] = biological target: T1, recombinant human IP-10 (hIP-10) (human, UniProt P02778 22-98); test: cell-based or functional assay
T1 sequence (looked up): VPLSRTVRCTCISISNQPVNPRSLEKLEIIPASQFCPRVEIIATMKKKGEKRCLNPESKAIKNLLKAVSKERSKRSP

[2] = biological target: T1, recombinant human IP-10 (hIP-10); test: cell-based or functional assay; remark: listed apart in the source

B3: CF1H1R3P4_B5, scFv format (scFv)
chain: QVQLVESGGGVVQPGRSLRLSCAASGFTFSNSGIHWVRQAPGKGLEWVAVISYDGSNKFYADSVKGRFTISRDNSKNTLYLQMNSLRAEDTAVYYCAKLRDNGEYLDYWGQGTLVTVSSNFMLTQPHSVSESPGKTVTISCTGSGGSIDRNYVQWYQQRPGSSPTTVIYEDNQRPSGVPDRFSGSIDSSSNSASLTISGLKTEDEADYYCQSYVETPEWVFGGGTKLTVL
Calcium flux IC50 (nM); 10 nM hIP-10; hCXCR3 L1.2 cells [1]: 2.4 nM
Chemotaxis IC50 (nM); 0.2 nM hIP-10; hCXCR3 L1.2 cells [1]: 0.51 nM

B4: CF1H1R3P3_G11, scFv format (scFv)
chain: B3 chain with V214D, E215P, T216L, E218V
Calcium flux IC50 (nM); 10 nM hIP-10; hCXCR3 L1.2 cells [1]: 7.8 nM
Chemotaxis IC50 (nM); 0.2 nM hIP-10; hCXCR3 L1.2 cells [1]: 0.39 nM

B7: CE7C1R3H8_J9, scFv format (scFv)
chain: QVQLVESGGGVVQPGRSLRLSCAASGFTFSTYGMHWVRQAPGKGLEWVAVISYDGGTKYYADSVKGRFTISRDNSMKTLYLQMNSLRTEDTAVYYCAKDLGDLPPGLDYWGQGTMVTVSSQSVLTQPPSASGTPGQRVTISCSGSSSNIGSNTVNWYQQLPGAAPKLLIYTNNQRPSGVPDRFSGSKSGTSASLAISGLQSEDEADYYCAAWDDSSEPRVVFGGGTKVTVL
Chemotaxis IC50 (nM); 1 nM hIP-10; hCXCR3 L1.2 cells [1]: 0.9 nM

B9: CB2R2P4_C3, scFv format (scFv)
chain: QVTLRESGPALVKPTQTLTLTCTFSGFSLTTSGMSVIWIRQPPGKALEWLARIDSDDEKHYNTSLKTRLAISKDTSKNQVVLTMTNMDPVDTGTYYCARLRAGSGPYVFDSWGQGTTVTVSSQSVLTQPPSASGTPGQRVTISCSGSSSNIGSNTVNWYQRLPGAAPQLLIYNNDQRPSGIPDRFSGSKSGTSGSLVISGLQSEDEADYYCASWDDSLNGRVFGGGTKLTVL
Calcium flux IC50 (nM); 10 nM hIP-10; hCXCR3 L1.2 cells [1]: 14 nM
Chemotaxis IC50 (nM); 1 nM hIP-10; hCXCR3 L1.2 cells [1]: 15 nM

B10: CB21R3P3_E5, IgG1 format (antibody, V domains shown)
VH: QVQLVESGGGVVQPGRSLRLSCAASGFTFSSYGMHWVRQAPGKGLEWVAVISYDGSIKYYADSVKGRFTISRDNSKNTLYLQMNSLRAEDAAVYYCARAPDGHQLDYWGRGTLVTVSS
VL: NFMLTQPHSVSESPGKTVTISCTGSSGSIASNYVQWYQQRPGSAPTTVIYEDDQRPSDVPDRFSGSIDSSSNSASLTISGLRTEDEADYYCQSYVSSKWVFGGGTKLTVL
Chemotaxis IC50 (nM); 1 nM rhIP-10 [2]: 122 nM

B15: CC21R3P1_F1, scFv format (scFv)
chain: QVQLVESGGGVVQPGRSHTLSCAASGFAFKNSGIHWVRQAPGKGLEWVAVISYDGSNKFYADSVKGRFTISRDNSQNTVYLQMTDLRPDDTAVYYCARDGSESEYLDYWGKGTLVTVSSNFMLTQPHSVSESPGKTVTISCTGSGGSIDRNYVQWYQQRPGSAPITVIYEDNQRPSGVPDRFSGSIDSSSNSASLTISGLRTDDEADYYCQSYDSINLWVFGGGTKVTVL
Calcium flux IC50 (nM); 10 nM hIP-10; hCXCR3 L1.2 cells [1]: 36 nM
Chemotaxis IC50 (nM); 2 nM hIP-10; hCXCR3 L1.2 cells [1]: 18 nM

B16: CB21R3P6_G7, scFv format (scFv)
chain: QVQLVQSGAEVKKPGSSVTVSCKASGGTFSSFSITWLRQAPGQGLEWMGEITPMFGIANYAQKFQGRVTISADESTSTAYMELSGLTSEDTAMYYCARDGRFDVSDLLTDKPKVTINYNGMDVWGQGTLVTVSSQSVLTQPPSASGTPGQRVTISCSGSSSNIGSNTVNWYQRLPGAAPQLLIYNNDQRPSGIPDRFSGSKSGTSGSLVISGLQSEDEADYYCASWDDSLNGRVFGGGTKLTVL
Calcium flux IC50 (nM); 10 nM hIP-10; hCXCR3 L1.2 cells [1]: 46 nM
Chemotaxis IC50 (nM); 1 nM hIP-10; hCXCR3 L1.2 cells [1]: 10 nM

B18: CB21R3P1_F1, scFv format (scFv)
chain: QVQLVESGGGVVRPGRSLRLSCAASGFTFSSYGMHWVRQAPGKGLEWVAVISYDGSIKYYADSVKGRFTISRDNSKNTLYLQMNSLRAEDTAIYYCARVMGTDPHSYYYMDVWGKGTLVTVSSSSELTQDPAVSVALGQTVRITCQGDSLRSYYASWYQRKPGQAPVLVIYGKNNRPSGIPDRFSGSSSGNTASLTITGAQAEDEADYYCNSRDSSGNHVLFGGGTKLTVL
Calcium flux IC50 (nM); 10 nM hIP-10; hCXCR3 L1.2 cells [1]: 36 nM
Chemotaxis IC50 (nM); 2 nM hIP-10; hCXCR3 L1.2 cells [1]: 40 nM

B19: CC21R3P1_H6, scFv format (scFv)
chain: QVQLVESGGGVAQSGKSLRLSCAASGFTFSNYGMHWVRQAPGKGLEWLAVISYDGSNRYYADSVKGRFTISRDNSNNTLNLQMSSLRAEDTALYYCAKDAGGPLDYWGKGTLVTVSSQSVLTQLTQPPSVSLAPGQTATITCGGDNIGRKSVHWYQQKPGQAPVLVVYDDTDRPSGIPERFSGSNSGNTATLTISRVEAGDEADYYCQVWDSSIDHSWVFGGGTKLTVL
Calcium flux IC50 (nM); 10 nM hIP-10; hCXCR3 L1.2 cells [1]: 71 nM
Chemotaxis IC50 (nM); 1 nM hIP-10; hCXCR3 L1.2 cells [1]: 36 nM

Further lines, results first:

Calcium flux IC50 (nM); 10 nM hIP-10; hCXCR3 L1.2 cells [1]: 179 nM
Chemotaxis IC50 (nM); 1 nM hIP-10; hCXCR3 L1.2 cells [1]: 72 nM
B1: CB1R3P4_D3, scFv format (scFv)
chain: QVQLVQFGGGVVQPGRSLRLSCAASGFTFSSYGMHWVRQAPGKGLEWVAVISYDGSIKYYADSVKGRFTISRENAKNSVYLQMDSLRVGDTAVYYCTRAGYSTDWHPDYWGQGTMVTVSSSSELTQDPAVSVALGQTVRITCQGDSLRSYYASWYQQKPGQAPVLAIYGKNNRPSGIPDRFSGSSSGNTASLTITGAQAEDEADYYCNSRDSSGNHVVFGGGTKLTVL

Chemotaxis IC50 (nM); 0.2 nM hIP-10; hCXCR3 L1.2 cells [1]: 0.12 nM
B2: CF1N1R3P4_C7, scFv format (scFv)
chain: B3 chain with G103A, L106T, V214D, E215P, T216L, E218V

Calcium flux IC50 (nM); 10 nM hIP-10; hCXCR3 L1.2 cells [1]: 14 nM
Chemotaxis IC50 (nM); 1 nM hIP-10; hCXCR3 L1.2 cells [1]: 1.8 nM
B5: CF1A11R3P3_F3, scFv format (scFv, V domains shown, not shown: small tags and cut ends)
VH: QVQLVESGGGVVQPGRSLRLSCAASGFTFSNSGIHWVRQAPGKGLEWVAVISYDGSNKFYADSVKGRFTISRDNSKNTLYLQMNSLRAEDTAVYYCAKLRDNGEYLDYWGQGTLVTVSS
VL: NFMLTQPHSVSESPGKTVTISCTGSGGSIDRNYVQWYQQRPGSAPITVIYEDNQRPSGVPDRFSGSIDSSSNSASLTISGLRTDDEADYYCQSYDSINLWVFGGGTKVTVL

Calcium flux IC50 (nM); 10 nM hIP-10; hCXCR3 L1.2 cells [1]: 107 nM
Chemotaxis IC50 (nM); 1 nM hIP-10; hCXCR3 L1.2 cells [1]: 107 nM
B6: CC21R3P1_B9, scFv format (scFv)
chain: EVQLVQSGGGVVQPGRSLRLSCAASGFTFSSYGMHWVRQAPGKGLEWVAVISYDGSNKYYADSVKGRFTISRDNSKNTLYLQMNSLRAEDTAVYYCAKDGGWYDWYFDLWGRGTLVTVSSSSELTQDPDVSVALGQTVRITCQGDSLTSYYASWYQQKPGQAPVLVISGNDNRPSGIPDRFSGSNSGNTASLTITGAQAEDAADYYCGSRDSSGYQVVFGAGTKLTVL

Calcium flux IC50 (nM); 10 nM hIP-10; hCXCR3 L1.2 cells [1]: 250 nM
Chemotaxis IC50 (nM); 2 nM hIP-10; hCXCR3 L1.2 cells [1]: 71 nM
B8: CC21R3P1_E7, scFv format (scFv)
chain: QLVESGGGVVQPGRSLRLSCAASGFTFSTYGMHWVRQAPGKGLEWVAVISYDGGTKYYADSVKGRFTISRDNSMKTLYLQMNSLRTEDTAVYYCAKDLGDLPPGLDYWGQGTMVTVSSQSVLTQPPSASGTPGQRVTISCSGSSSNIGSNTVNWYQQLPGAAPKLLIYTNNQRPSGVPDRFSGSKSGTSASLAISGLQSEDEADYYCAAWDDSLNGNVVFGGGTKVTVL

Calcium flux IC50 (nM); 10 nM rhIP-10 [2]: > 200 nM
Chemotaxis IC50 (nM); 1 nM rhIP-10 [2]: 75 nM
B11: CC21R3P1_H6, IgG1 format (antibody, V domains shown)
VH: QVQLVESGGGVAQSGKSLRLSCAASGFTFSNYGMHWVRQAPGKGLEWLAVISYDGSNRYYADSVKGRFTISRDNSNNTLNLQMSSLRAEDTALYYCAKDAGGPLDYWGKGTLVTVSS
VL: VLTQLTQPPSVSLAPGQTATITCGGDNIGRKSVHWYQQKPGQAPVLVVYDDTDRPSGIPERFSGSNSGNTATLTISRVEAGDEADYYCQVWDSSIDHSWVFGGGTKLTVL

Calcium flux IC50 (nM); 10 nM hIP-10; hCXCR3 L1.2 cells [1]: 39 nM
Chemotaxis IC50 (nM); 2 nM hIP-10; hCXCR3 L1.2 cells [1]: 36 nM
B12: CB21R3P3_E5, scFv format (scFv)
chain: QVQLVESGGGVVQPGRSLRLSCAASGFTFSSYGMHWVRQAPGKGLEWVAVISYDGSIKYYADSVKGRFTISRDNSKNTLYLQMNSLRAEDAAVYYCARAPDGHQLDYWGRGTLVTVSSNFMLTQPHSVSESPGKTVTISCTGSSGSIASNYVQWYQQRPGSAPTTVIYEDDQRPSDVPDRFSGSIDSSSNSASLTISGLRTEDEADYYCQSYVSSKWVFGGGTKLTVL

Calcium flux IC50 (nM); 10 nM hIP-10; hCXCR3 L1.2 cells [1]: 107 nM
Chemotaxis IC50 (nM); 1 nM hIP-10; hCXCR3 L1.2 cells [1]: 36 nM
B13: CC21R3P4_F4, scFv format (scFv)
chain: QVQLVESGGGVAHSGKSLRLSCAASGFTFSNYGMHWVRQAPGKGLEWLAVISYDGSNRYYADSVKGRFTISRDNSNNTLNLQMSSLRAEDTALYYCAKDAGGPLDYWGRGTLVTVSSSYVLTQPPSVSVAPGQMARITCGGNNIGDKSVQWYQQRPGQAPLLVVYDDSDRPSGIPERFSGSYSRNTATLTISRVEAGDEADYYCQVWDSSSDHPEVVFGGGTKLTVL

Calcium flux IC50 (nM); 10 nM hIP-10; hCXCR3 L1.2 cells [1]: 37 nM
Chemotaxis IC50 (nM); 1 nM hIP-10; hCXCR3 L1.2 cells [1]: 108 nM
B14: CC21R3P1_C1a, scFv format (scFv)
chain: QVQLVESGGGVVQPGRSLRLSCAASGFTFSSYGMHWVRQAPGKGLEWVAVISYDGSNKYYADSVKGRFTISRDNSKNTLYLQMNSLRAEDTAVYYCAKDEFDAFDIWGRGTMVTVSSSYVLTQPPSVSVAPGTTARITCGGNNIGSRSVHWYQQKPGQAPLLVIYYDSDRPSGIPLRFSGSNSGNTATLTISRVEAGDEADYYCQVWDTSSGHYVFGTGTKVTVL

Calcium flux IC50 (nM); 10 nM hIP-10; hCXCR3 L1.2 cells [1]: 71 nM
Chemotaxis IC50 (nM); 1 nM hIP-10; hCXCR3 L1.2 cells [1]: 72 nM
B17: CC21R3P3_C1, scFv format (scFv)
chain: QVQLVESGGGVVQPGRSLRLSCAASGFTFSSYGMHWVRQAPGKGLEWVAVISYDGSIKYYADSVKGRFTISRDNSRNTLYLQMNSLRPEDTAVYYCAKDWGFSGSLTFDYWGQGTMVTVSSSYVLTQPPSVSVAPGKTARITCGGNNIGSKSVHWYQQKPGQAPVLVIYYDSDRPSGIPERFSGSNSGNTATLTISRVEAGDEADYYCQVWDSSSDHVVFGGGTKVTVL
